Measured values taken from patent US20170233470A1.

Target: NTSR1
Experiment: cell-based or functional assay

For “Neurotensin (NTS) (from UniProt P30990 151-163) (peptide)”, which decrease in cell growth (proliferation) of CHO cells overexpressing NTSR1 is on record?
The decrease in cell growth (proliferation) of CHO cells overexpressing NTSR1 was 60%.
